Reference: patent WO2023190852A1

Biological target: RBD derived from the Omicron strain (BA.1 strain; B.1.1.529) (SARS-CoV-2)

Substance | binding inhibition rate (%)
ADG2 (antibody) | < 80
AZD1061 (antibody) | < 80
AZD8895 (antibody) | < 80
LY_CoV16 (antibody) | < 80
LY_CoV555 (antibody) | < 80
REGN10933 (antibody) | < 80
REGN10987 (antibody) | < 80
S309 (antibody) | < 80
